Experiment [1] deals with T1, human CD38 on cells (human, UniProt P28907 1-300).
T1 construct: The cell that carried CD38 is named under assay in each row; also called CD38 on Raji, RPMI8226, OPM2, CCRF-CEM, human erythrocytes, CD38 CHO-K1 transfectants
Put plainly: FACS Scatchard, IgG1 on Raji cells.

Experiment [2] concerns the target T2, human CD38 Fc-fusion aa 45-300 (human, UniProt P28907 45-300).
T2 construct: Expressed in HEK293 behind a human Vkappa leader, which is left out here; also called CD38-Fc fusion protein; CD38 Fc-Fusion protein
Put plainly: SPR (Biacore), Fab on immobilized CD38 Fc-fusion; 84 taken as the standard deviation (n = 4) by footnote d.

Experiment [3] addresses T2, human CD38 Fc-fusion aa 45-300. The experiment in a line: SPR (Biacore), Fab on immobilized CD38 Fc-fusion; 54 is the standard deviation (n = 3). On the technique in general: SPR reads the build-up and loss of mass on a sensor chip optically.
Experiment [4] deals with T3, Cynomolgus CD38 on Erythrocytes (cynomolgus monkey, UniProt Q5VAN0).
T3 construct: native protein on erythrocytes (pellet of the density gradient)
Put plainly: FACS, Fab format, cynomolgus erythrocytes; column taken from the order of panel A [Continued]. Background: In flow cytometry, cells or beads pass a laser one at a time.

Experiment [5] deals with CD38 (antigen of the Bioveris affinity determination) (Homo sapiens (Human), UniProt P28907 45-300, limits assumed). The experiment in a line: Bioveris, Fab format.
Experiment [6] has as its target T4, Cynomolgus CD38 on PBMCs (Lymphocytes) (cynomolgus monkey, UniProt Q5VAN0).
T4 construct: native protein on lymphocytes of the PBMC fraction of whole blood
The experiment in a line: FACS, Fab format, cynomolgus lymphocytes (PBMC fraction); column taken from the order of panel A [Continued].

Experiment [7] has as its target T2, human CD38 Fc-fusion aa 45-300. The experiment in a line: SPR (Biacore), Fab format.
Experiment [8] shares this target. Put plainly: SPR (Biacore), Fab on immobilized CD38 Fc-fusion.
Experiment [9] concerns the target T1, human CD38 on cells. Put plainly: FACS Scatchard on RPMI8226 cells; * different experiment.
Experiment [10] has as its target T2, human CD38 Fc-fusion aa 45-300. The experiment in a line: ELISA on CD38 Fc-fusion protein, IgG format.
The target in experiment [11] is T1, human CD38 on cells. Put plainly: FACS Scatchard on RPMI8226 cells, single measurement; RPMI8226 cells, FACS Scatchard; single measurement.
The target in experiment [12] is T1, human CD38 on cells. The experiment in a line: FACS Scatchard on CCRF-CEM cells, single measurement; CCRF-CEM cells, FACS Scatchard; single measurement.
Experiment [13] has as its target T1, human CD38 on cells. Put plainly: FACS Scatchard on OPM2 cells, mean from 2 measurements; OPM2 cells, FACS Scatchard; mean from 2 measurements.
Experiment [14] deals with T1, human CD38 on cells. Put plainly: FACS Scatchard on OPM2 cells, IgG format; * different experiment; OPM2 cells, FACS Scatchard, IgG format; different experiment.
In experiment [15] the target is T1, human CD38 on cells. The experiment in a line: FACS Scatchard on OPM2 cells, IgG format.
The target of experiment [16] is T1, human CD38 on cells. The experiment in a line: cell-based or functional assay.
Experiment [17] concerns the target T1, human CD38 on cells. Put plainly: FACS Scatchard on OPM2 cells, IgG format; * different experiment.
Experiment [18] concerns the target T1, human CD38 on cells. The experiment in a line: FACS Scatchard on OPM2 cells, mean from 2 measurements.
In experiment [19] the target is T1, human CD38 on cells. Put plainly: FACS Scatchard on CCRF-CEM cells, single measurement.
Experiment [20] has as its target T1, human CD38 on cells. The experiment in a line: FACS Scatchard on RPMI8226 cells, single measurement.
Experiment [21] deals with T3, Cynomolgus CD38 on Erythrocytes. Put plainly: FACS, Fab format, cynomolgus erythrocytes.
Experiment [22] concerns the target T1, human CD38 on cells. Put plainly: FACS Scatchard on RPMI8226 cells.
Experiment [23] concerns the target T4, Cynomolgus CD38 on PBMCs (Lymphocytes). The experiment in a line: FACS, Fab format, cynomolgus lymphocytes (PBMC fraction).

These results are taken from US20240309109A1 (MorphoSys, published 2024).

B1: MOR03085 IgG1 (antibody, V domains shown)
VH: QVQLVQSGAEVKKPGASVKVSCKASGYTFTGYYINWVRQAPGQGLEWMGWIFPNGGSTGYAQKFQGRVTMTRDTSISTAYMELSSLRSEDTAVYYCARGNIFIFDYWGQGTLVTVSS
VL: DIVLTQPPSVSGAPGQRVTISCSGSSSNIGNNYVSWYQQLPGTAPKLLIYGDDQRPSGVPDRFSGSKSGTSASLAITGLQSEDEADYYCQSYGTFSSFVFGGGTKLTVLG
Turning to B1, in [1], the affinity, expressed as Kd, was 10 nM.

B2: MOR03128 Fab (Fab, V domains shown)
VH: QVQLKESGPALVKPTQTLTLTCTFSGFSLSSSGMSVSWIRQPPGKALEWLARIYSDDSKSYSTSLKTRLTISKDTSKNQVVLTMTNMDPVDTATYYCARAAHWNGPLFDVWGQGTLVTVSS
VL: DIELTQPPSVSVAPGQTARISCSGDNIGHYYAHWYQQKPGQAPVVVIYDDNDRPSGIPERFSGSNSGNTATLTISGTQAEDEADYYCQAYTGDGGRVFGGGTKLTVLG
notes: Fab format
On to B2, for which binding in experiment [2] was characterised by a dissociation constant (Kd) of 117 nM.

B3: MOR03127 Fab (Fab, V domains shown)
VH: QVQLVQSGAEVKKPGESLKISCKGSGYSFSTSWVGWVRQMPGKGLEWMGIIDPDISYTSYSPSFQGQVTISADKSISTAYLQWSSLKASDTAMYYCARYLMGLGYDVWGQGTLVTVSS
VL: DIALTQPASVSGSPGQSITISCTGTSSDVGAINYVSWYQQHPGKAPKLMIYDVNKRPSGVPDRFSGSKSGNTASLTISGLQAEDEADYYCGSYTMQVGSYVFGGGTKLTVLG
notes: Fab format
For the molecule B3, in experiment [3], the Kd (commonly the free concentration of one partner at which half of the binding sites on the other are occupied at equilibrium, for simple one-to-one binding) turned out to be 168 nM.

B4: MOR03088 Fab (Fab, V domains shown)
VH: QVQLVESGGGLVQPGGSLRLSCAASGFTFSSYAMNWVRQAPGKGLEWVSGISSWGSSTYYADSVKGRFTISRDNSKNTLYLQMNSLRAEDTAVYYCAREDGSYMTDYFAYWGQGTLVTVSS
VL: DIELTQPPSVSVAPGQTARISCSGDNIGHYYVSWYQQKPGQAPVLVIYSDSNRPSGIPERFSGSNSGNTATLTISGTQAEDEADYYCQSYNGTYVFGGGTKLTVLG
notes: Fab format
As for B4, the binding result in experiment [4] and in [6] was “binds” throughout. The values for the Kd in experiment [5], in experiment [7] and in experiment [8] were 2.15 nM, 41.4 nM and 95 nM, respectively. For the same molecule, the EC50 (as a rule, the concentration that produces a half-maximal response) in experiment [9] amounted to 24.6 nM.

B5: MOR03088 IgG (antibody, V domains shown)
VH: B4 VH
VL: B4 VL
On to B5, for which, in experiment [10], the “ELISA CD38 Fc-Fusion protein (% Reactivity of MOR03087)” value came out at 18%. The EC50 came to 24.6 nM in experiment [11], 25.5 nM in experiment [12], 2.6 nM in [13] and 15.3 nM in [14].

B6: MOR03087 IgG1 (antibody, V domains shown)
VH: QVQLVESGGGLVQPGGSLRLSCAASGFTFSSYYMNWVRQAPGKGLEWVSGISGDPSNTYYADSVKGRFTISRDNSKNTLYLQMNSLRAEDTAVYYCARDLPLVYTGFAYWGQGTLVTVSS
VL: DIELTQPPSVSVAPGQTARISCSGDNLRHYYVYWYQQKPGQAPVLVIYGDSKRPSGIPERFSGSNSGNTATLTISGTQAEDEADYYCQTYTGGASLVFGGGTKLTVLG
Turning to B6, the “ELISA CD38 Fc-Fusion protein (% Reactivity of MOR03087)” value in experiment [10] stood at 100%. The EC50 in experiment [15] came out at 5.7 nM; in [17] it was 17.4 nM; in [18], 17.5 nM; in experiment [19] it was 14.7 nM; in experiment [20], 6.3 nM. Further, the “ADCC RPMI8226 EC50” value in experiment [16] was 0.14 nM. Moreover, the “CDC CHO EC50” value in [16] stood at 3.4 nM. Besides, the Kd in experiment [1] stood at 5 nM.

B7: MOR03087 Fab (Fab, V domains shown)
VH: B6 VH
VL: B6 VL
notes: Fab format
Take B7: the figures for the Kd in experiment [5] and in experiment [7] were 0.0488 nM and 5.68 nM, respectively. Further, the binding result in [21] and in [23] was “binds” each time. In experiment [22], this molecule registered an EC50 of 5.37 nM.
